Experimental data taken from the supplement of paper PMC10065799, “High-throughput profiling of sequence recognition by tyrosine kinases and SH2 domains using bacterial peptide display” (eLife, 2023).

biological target: EPHB2 (UniProt P29323); experiment: phosphorylation enrichment, bacterial display (enrichment ratio); higher = better substrate or ligand; peptides without Tyr show the background
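Further: 11-residue human phosphosite peptides and single-mutation variants displayed on the E. coli surface, counted by deep sequencing, each peptide's frequency after selection divided by its frequency in the unselected input library; frequency after pTyr selection over input frequency; kinase dosed for 20-30% of maximal phosphorylation in three min.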

Sequence of EPHB2 (P29323 whole entry, looked up): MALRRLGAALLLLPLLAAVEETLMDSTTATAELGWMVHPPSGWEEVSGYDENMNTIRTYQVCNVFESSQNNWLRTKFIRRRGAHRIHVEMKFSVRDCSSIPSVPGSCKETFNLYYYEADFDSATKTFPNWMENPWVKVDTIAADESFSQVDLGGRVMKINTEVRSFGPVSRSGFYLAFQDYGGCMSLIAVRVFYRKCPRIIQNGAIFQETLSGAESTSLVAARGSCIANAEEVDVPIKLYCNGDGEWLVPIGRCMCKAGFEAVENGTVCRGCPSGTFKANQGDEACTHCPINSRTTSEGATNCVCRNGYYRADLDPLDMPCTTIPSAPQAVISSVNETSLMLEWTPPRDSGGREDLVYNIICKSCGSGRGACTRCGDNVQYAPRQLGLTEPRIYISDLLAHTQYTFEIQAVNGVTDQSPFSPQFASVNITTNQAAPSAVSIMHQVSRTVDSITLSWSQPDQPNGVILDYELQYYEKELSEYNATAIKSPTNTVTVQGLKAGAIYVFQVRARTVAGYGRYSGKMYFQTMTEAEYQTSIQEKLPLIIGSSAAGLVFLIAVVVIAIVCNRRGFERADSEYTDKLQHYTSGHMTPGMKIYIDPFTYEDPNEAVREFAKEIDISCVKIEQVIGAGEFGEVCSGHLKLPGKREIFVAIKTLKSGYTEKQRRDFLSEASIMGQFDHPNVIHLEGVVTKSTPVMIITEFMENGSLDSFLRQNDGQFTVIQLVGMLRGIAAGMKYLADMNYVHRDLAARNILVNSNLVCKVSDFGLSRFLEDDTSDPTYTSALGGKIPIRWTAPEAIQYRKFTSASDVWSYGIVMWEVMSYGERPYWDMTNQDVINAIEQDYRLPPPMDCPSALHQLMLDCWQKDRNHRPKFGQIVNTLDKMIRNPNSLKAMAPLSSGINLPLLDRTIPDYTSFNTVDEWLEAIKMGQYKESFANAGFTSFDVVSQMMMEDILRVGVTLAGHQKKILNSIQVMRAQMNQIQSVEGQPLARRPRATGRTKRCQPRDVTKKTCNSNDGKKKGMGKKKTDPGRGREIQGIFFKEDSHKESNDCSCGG

| Sequence | phosphorylation enrichment |
| --- | --- |
| AGLVQYYMEHH [PTPN11_Y80_E76G] | 0.777 |
| SGIFQYIIAKF [FOXL2_Y83_YF] | 0.564 |
| AGVIIYTSRFQ [PFAS_Y538_A535V] | 0.631 |
| ALLTKYSHSSM [DSCC1_Y374] | 0.643 |
| GAAMLYYPSVS [GPR143_Y177] | 1.66 |
| EVVGRYSVHYA [MLH1_Y183_N187Y] | 0.5 |
| LHAAAYQNALA [UQCRC2_Y182_R183Q] | 0.423 |
| LYSGDCYRIQG [DDR2_Y740_Y740C] | 1.3 |
| GADAIYDHVNE [UQCR10_Y44_I47V] | 1.82 |
| SLLKDYSPQLQ [OTC_Y345_T343K] | 0.525 |
| MAYDRYVAICS [OR8D4_Y123_C120Y] | 2.12 |
| RNIQQHNSFVS [PRKAR1A_Y373_Y373H] | 0.343 |
| RSSGGYEPRGR [FUS_Y239] | 0.452 |
| KFGTNYRVGSS [CPO_Y278_YF] | 0.382 |
| VTHKEYFIFLE [CAMKV_Y95_R92H] | 1.36 |
| QHVPDYRQNGF [PCDHGA1_Y890_V894G_YF] | 0.459 |
| MASTSYDYCRV [BST2_Y6] | 3.51 |

| Sequence | phosphorylation enrichment |
| --- | --- |
| SRDPFYEMLAA [CYTH1_Y382] | 1.71 |
| EEQKKYFNATK [SCN5A_Y1494_M1498T_YF] | 0.479 |
| ANVIHYFPTQA [SLC25A4_Y81_R80H] | 0.415 |
| HLVLNYGVCVC [JAK2_Y613] | 1.27 |
| DLDLTSIYPNI [PTEN_Y27_Y27S] | 0.582 |
| GGDGSYVSVPS [TNNI3K_Y425] | 0.431 |
| RGVVMYTSKDR [ZG16B_Y136_M133V] | 0.724 |
| NKYTTYLPRLP [C9orf24_Y126] | 0.386 |
| VKKNRYKDILP [PTPN12_Y64] | 0.471 |
| GRTGHYLCNAC [GATA1_Y223_D218G] | 0.287 |
| QELRRYLKSGI [MICA_Y194_V199I] | 0.281 |
| IPQEEYTATGL | 0.512 |
| GLAELYEFKKK [CKAP5_Y1854_YF] | 0.348 |
| ITNLLYHLVGW [GBA_Y412_V414L] | 1.04 |
| KHTLSFVDVGT [SDHA_Y629_Y629F] | 0.495 |
| KGTAGYTTVAV [RET_Y752_R749T] | 0.362 |

biological target: Fes (UniProt P07332); experiment: as above
Sequence (P07332 whole entry, looked up): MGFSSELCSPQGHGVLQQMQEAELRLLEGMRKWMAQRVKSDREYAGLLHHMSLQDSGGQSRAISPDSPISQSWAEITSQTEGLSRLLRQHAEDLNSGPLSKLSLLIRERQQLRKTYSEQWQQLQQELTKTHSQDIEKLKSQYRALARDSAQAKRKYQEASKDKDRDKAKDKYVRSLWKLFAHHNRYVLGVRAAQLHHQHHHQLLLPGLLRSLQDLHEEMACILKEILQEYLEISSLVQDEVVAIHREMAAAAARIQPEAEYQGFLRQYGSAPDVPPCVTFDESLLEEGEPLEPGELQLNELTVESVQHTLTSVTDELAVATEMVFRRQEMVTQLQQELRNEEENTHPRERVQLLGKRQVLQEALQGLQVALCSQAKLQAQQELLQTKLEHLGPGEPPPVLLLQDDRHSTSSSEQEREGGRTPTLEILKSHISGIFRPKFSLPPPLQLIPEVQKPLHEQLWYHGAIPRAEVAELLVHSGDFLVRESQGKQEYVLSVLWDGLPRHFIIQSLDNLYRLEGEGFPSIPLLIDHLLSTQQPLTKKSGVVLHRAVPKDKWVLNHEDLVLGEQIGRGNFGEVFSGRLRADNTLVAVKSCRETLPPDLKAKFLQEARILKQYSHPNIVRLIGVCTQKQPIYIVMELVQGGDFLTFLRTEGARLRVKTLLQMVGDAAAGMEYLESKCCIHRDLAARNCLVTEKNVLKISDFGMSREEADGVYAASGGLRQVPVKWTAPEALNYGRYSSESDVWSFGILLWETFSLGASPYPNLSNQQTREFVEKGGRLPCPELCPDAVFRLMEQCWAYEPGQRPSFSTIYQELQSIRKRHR

| Sequence | phosphorylation enrichment |
| --- | --- |
| AGLVQYYMEHH [PTPN11_Y80_E76G] | 0.939 |
| SGIFQYIIAKF [FOXL2_Y83_YF] | 1.13 |
| AGVIIYTSRFQ [PFAS_Y538_A535V] | 1.42 |
| ALLTKYSHSSM [DSCC1_Y374] | 0.737 |
| GAAMLYYPSVS [GPR143_Y177] | 0.783 |
| EVVGRYSVHYA [MLH1_Y183_N187Y] | 1.03 |
| LHAAAYQNALA [UQCRC2_Y182_R183Q] | 0.715 |
| LYSGDCYRIQG [DDR2_Y740_Y740C] | 1.18 |
| GADAIYDHVNE [UQCR10_Y44_I47V] | 1.08 |
| SLLKDYSPQLQ [OTC_Y345_T343K] | 0.806 |
| MAYDRYVAICS [OR8D4_Y123_C120Y] | 1.01 |
| RNIQQHNSFVS [PRKAR1A_Y373_Y373H] | 0.451 |
| RSSGGYEPRGR [FUS_Y239] | 0.569 |
| KFGTNYRVGSS [CPO_Y278_YF] | 0.803 |
| VTHKEYFIFLE [CAMKV_Y95_R92H] | 1.36 |
| QHVPDYRQNGF [PCDHGA1_Y890_V894G_YF] | 0.875 |
| MASTSYDYCRV [BST2_Y6] | 0.68 |

| Sequence | phosphorylation enrichment |
| --- | --- |
| SRDPFYEMLAA [CYTH1_Y382] | 1.26 |
| EEQKKYFNATK [SCN5A_Y1494_M1498T_YF] | 0.729 |
| ANVIHYFPTQA [SLC25A4_Y81_R80H] | 0.652 |
| HLVLNYGVCVC [JAK2_Y613] | 2.31 |
| DLDLTSIYPNI [PTEN_Y27_Y27S] | 0.955 |
| GGDGSYVSVPS [TNNI3K_Y425] | 0.565 |
| RGVVMYTSKDR [ZG16B_Y136_M133V] | 0.865 |
| NKYTTYLPRLP [C9orf24_Y126] | 0.684 |
| VKKNRYKDILP [PTPN12_Y64] | 0.988 |
| GRTGHYLCNAC [GATA1_Y223_D218G] | 0.631 |
| QELRRYLKSGI [MICA_Y194_V199I] | 0.458 |
| IPQEEYTATGL | 1.39 |
| GLAELYEFKKK [CKAP5_Y1854_YF] | 0.705 |
| ITNLLYHLVGW [GBA_Y412_V414L] | 0.866 |
| KHTLSFVDVGT [SDHA_Y629_Y629F] | 0.691 |
| KGTAGYTTVAV [RET_Y752_R749T] | 0.493 |

tested on: c-Abl (mouse); experiment: as above

| Sequence | phosphorylation enrichment |
| --- | --- |
| AGLVQYYMEHH [PTPN11_Y80_E76G] | 0.448 |
| SGIFQYIIAKF [FOXL2_Y83_YF] | 0.84 |
| AGVIIYTSRFQ [PFAS_Y538_A535V] | 0.522 |
| ALLTKYSHSSM [DSCC1_Y374] | 0.727 |
| GAAMLYYPSVS [GPR143_Y177] | 0.941 |
| EVVGRYSVHYA [MLH1_Y183_N187Y] | 0.649 |
| LHAAAYQNALA [UQCRC2_Y182_R183Q] | 0.495 |
| LYSGDCYRIQG [DDR2_Y740_Y740C] | 0.808 |
| GADAIYDHVNE [UQCR10_Y44_I47V] | 0.8 |
| SLLKDYSPQLQ [OTC_Y345_T343K] | 0.59 |
| MAYDRYVAICS [OR8D4_Y123_C120Y] | 1.03 |
| RNIQQHNSFVS [PRKAR1A_Y373_Y373H] | 0.438 |
| RSSGGYEPRGR [FUS_Y239] | 0.384 |
| KFGTNYRVGSS [CPO_Y278_YF] | 0.725 |
| VTHKEYFIFLE [CAMKV_Y95_R92H] | 0.755 |
| QHVPDYRQNGF [PCDHGA1_Y890_V894G_YF] | 0.758 |
| MASTSYDYCRV [BST2_Y6] | 0.956 |

| Sequence | phosphorylation enrichment |
| --- | --- |
| SRDPFYEMLAA [CYTH1_Y382] | 0.681 |
| EEQKKYFNATK [SCN5A_Y1494_M1498T_YF] | 0.459 |
| ANVIHYFPTQA [SLC25A4_Y81_R80H] | 0.806 |
| HLVLNYGVCVC [JAK2_Y613] | 1.49 |
| DLDLTSIYPNI [PTEN_Y27_Y27S] | 0.837 |
| GGDGSYVSVPS [TNNI3K_Y425] | 0.487 |
| RGVVMYTSKDR [ZG16B_Y136_M133V] | 1.4 |
| NKYTTYLPRLP [C9orf24_Y126] | 0.625 |
| VKKNRYKDILP [PTPN12_Y64] | 0.874 |
| GRTGHYLCNAC [GATA1_Y223_D218G] | 0.375 |
| QELRRYLKSGI [MICA_Y194_V199I] | 0.402 |
| IPQEEYTATGL | 0.924 |
| GLAELYEFKKK [CKAP5_Y1854_YF] | 0.451 |
| ITNLLYHLVGW [GBA_Y412_V414L] | 0.703 |
| KHTLSFVDVGT [SDHA_Y629_Y629F] | 0.451 |
| KGTAGYTTVAV [RET_Y752_R749T] | 0.448 |

biological target: FGFR3 (UniProt P22607); experiment: as above
Sequence (P22607 whole entry, looked up): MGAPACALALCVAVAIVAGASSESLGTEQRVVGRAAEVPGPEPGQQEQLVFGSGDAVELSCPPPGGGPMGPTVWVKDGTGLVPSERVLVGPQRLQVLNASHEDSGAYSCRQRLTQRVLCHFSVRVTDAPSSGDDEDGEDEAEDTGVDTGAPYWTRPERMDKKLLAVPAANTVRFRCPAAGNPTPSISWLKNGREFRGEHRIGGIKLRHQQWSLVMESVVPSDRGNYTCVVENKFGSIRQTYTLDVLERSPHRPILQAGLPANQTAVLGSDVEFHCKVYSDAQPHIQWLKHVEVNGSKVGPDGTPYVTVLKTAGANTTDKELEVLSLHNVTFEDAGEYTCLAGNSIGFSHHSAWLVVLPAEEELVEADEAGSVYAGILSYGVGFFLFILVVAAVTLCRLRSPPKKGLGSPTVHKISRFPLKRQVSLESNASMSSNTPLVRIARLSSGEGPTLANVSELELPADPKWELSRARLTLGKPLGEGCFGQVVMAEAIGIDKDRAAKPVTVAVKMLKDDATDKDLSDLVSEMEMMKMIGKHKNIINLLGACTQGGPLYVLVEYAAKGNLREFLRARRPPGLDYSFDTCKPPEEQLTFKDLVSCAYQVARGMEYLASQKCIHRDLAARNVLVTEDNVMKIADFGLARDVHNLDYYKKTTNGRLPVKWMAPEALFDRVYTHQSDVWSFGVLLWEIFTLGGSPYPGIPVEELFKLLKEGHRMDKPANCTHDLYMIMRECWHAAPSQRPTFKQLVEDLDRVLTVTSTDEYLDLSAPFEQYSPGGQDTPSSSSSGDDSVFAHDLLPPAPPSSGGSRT

| Sequence | phosphorylation enrichment |
| --- | --- |
| AGLVQYYMEHH [PTPN11_Y80_E76G] | 0.73 |
| SGIFQYIIAKF [FOXL2_Y83_YF] | 0.704 |
| AGVIIYTSRFQ [PFAS_Y538_A535V] | 0.792 |
| ALLTKYSHSSM [DSCC1_Y374] | 0.587 |
| GAAMLYYPSVS [GPR143_Y177] | 3.51 |
| EVVGRYSVHYA [MLH1_Y183_N187Y] | 0.588 |
| LHAAAYQNALA [UQCRC2_Y182_R183Q] | 0.476 |
| LYSGDCYRIQG [DDR2_Y740_Y740C] | 1.11 |
| GADAIYDHVNE [UQCR10_Y44_I47V] | 0.62 |
| SLLKDYSPQLQ [OTC_Y345_T343K] | 0.999 |
| MAYDRYVAICS [OR8D4_Y123_C120Y] | 0.753 |
| RNIQQHNSFVS [PRKAR1A_Y373_Y373H] | 0.448 |
| RSSGGYEPRGR [FUS_Y239] | 0.403 |
| KFGTNYRVGSS [CPO_Y278_YF] | 0.567 |
| VTHKEYFIFLE [CAMKV_Y95_R92H] | 1.87 |
| QHVPDYRQNGF [PCDHGA1_Y890_V894G_YF] | 0.597 |
| MASTSYDYCRV [BST2_Y6] | 0.851 |

| Sequence | phosphorylation enrichment |
| --- | --- |
| SRDPFYEMLAA [CYTH1_Y382] | 3.2 |
| EEQKKYFNATK [SCN5A_Y1494_M1498T_YF] | 0.582 |
| ANVIHYFPTQA [SLC25A4_Y81_R80H] | 0.56 |
| HLVLNYGVCVC [JAK2_Y613] | 1.8 |
| DLDLTSIYPNI [PTEN_Y27_Y27S] | 0.78 |
| GGDGSYVSVPS [TNNI3K_Y425] | 0.592 |
| RGVVMYTSKDR [ZG16B_Y136_M133V] | 0.568 |
| NKYTTYLPRLP [C9orf24_Y126] | 0.418 |
| VKKNRYKDILP [PTPN12_Y64] | 0.769 |
| GRTGHYLCNAC [GATA1_Y223_D218G] | 0.433 |
| QELRRYLKSGI [MICA_Y194_V199I] | 0.313 |
| IPQEEYTATGL | 0.653 |
| GLAELYEFKKK [CKAP5_Y1854_YF] | 0.48 |
| ITNLLYHLVGW [GBA_Y412_V414L] | 5.47 |
| KHTLSFVDVGT [SDHA_Y629_Y629F] | 0.497 |
| KGTAGYTTVAV [RET_Y752_R749T] | 0.34 |
